# The nanobody polyreactivity screen of Harvey et al. (2022)
# Experiment: yeast display, Sf9 membrane polyspecificity reagent, FACS + sequencing; frameworks hold sequencing errors
# Outline: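 A synthetic nanobody library was expressed on Saccharomyces cerevisiae BJ5465 by galactose induction for 36–48 hours. The library was stained for 1 hour at 4 °C with 10% biotinylated, detergent-solubilized Sf9 membrane reagent and enriched with streptavidin microbeads before FACS. Low and high (top ~1%) gates were set on anti-HA fluorescence for expression and streptavidin fluorescence for reagent binding, and each polyreactivity label reflects the gate of origin.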
row,Sequence,polyreactivity (PSR sort gate)
1,QVQLVESGGGLVQAGGSLRLSCAASGIIFIFYDMGWYRQAPGKERELVATITSGTNTDADSVKGRFTISRDNAKNTVYLQMNSLKPEDTAVYYCAAGFSPASQLDYWGQGTQVTVSS,low polyreactivity
2,QVQLVESGGGLVQAGGSLRLSCAASGIIFIGNAMGWYRQAPGKERELVAAITYTGGSTYYADSVKGRFTISRDNAKNTVYLQMNSLKPEDTAVYYCAVDRTHLEDDYWGQGTQVTVSS,low polyreactivity
3,QVQLVESGGGLVQAGGSLRLSCAASGIIFIKYAMGWYRQAPGKERELVAAITSGGSTHYADSVKGRFTISRDNAKNTVYLQMNSLKPEDTAVYYCNADILRHVAYFKDRYQAGSYWGQGTQVTVSS,low polyreactivity
4,QVQLVESGGGLVQAGGSLRLSCAASGIIFITYAMGWYRQAPGKERELVAAITNSGGGTYYADSVKGRFTNSRDNAKNTVYLQMNSLKPEDTAVYYCAARKTAYGYRYDYWGQGTQVTVSS,high polyreactivity
5,QVQLVESGGGLVQAGGSLRLSCAASGIIFIYYDMGWYRQAPGKERELVAAISRSGGSTYYADSVKGRFTISRDIAKNTFYLQMNSLKPEDTAVYYCAARRITSTDEYYWGHGTQVTVSS,high polyreactivity
6,QVQLVESGGGLVQAGGSLRLSCAASGIIFIYYTMGWYRQSPGKERELVAVITTSGDGTYYADSVKGRFTISRDNAKNTVYLQMNSLKPEDTAVYYCAASYSTWVSTRNDYWGQGTQVTVSS,low polyreactivity
7,QVQLVESGGGLVQAGGSLRLSCAASGIIFKGYDMGWYRQAPGKERELVAAISSGSTNYADSVKGRFTISRDNAKNTVYLQMNSLKPEDTAVYYCNKDSISYTWGYDYWGQGTQVTVSS,low polyreactivity
8,QVQLVESGGGLVQAGGSLRLSCAASGIIFKLNAMGWYRQAPGKEREFVAAITRRGGITFYADSVKGRFTISRDNAKNTVYLQMNSLKPEDTAVYYCAASPGRRRRPYASLIRYDYWGQGTQVTVSS,high polyreactivity
9,QVQLVESGGGLVQAGGSLRLSCAASGIIFKNYAMGWYRQAPGKERELVAAISWRGGRTYYADSVKGRFTISRDNAKNTVYLQMNSLIPEDTAVYYCAKELYVSYRGGPWVDYWGQGTQVTVSS,high polyreactivity
10,QVQLVESGGGLVQAGGSLRLSCAASGIIFKQNVMGWYRQAPGKERELVAAITSRDGSTYYADSVKGRFTISRDNAKNTVYLQMNSLKPEDTAVYYCAAKWRSPRYYLYGYWGQGTQVTVSS,high polyreactivity
11,QVQLVESGGGLVQAGGSLRLSCAASGIIFKSYTMGWYRQAPGKERELVAAINSSGDRTYYADSVKGRFTISRDNAKNTVYLQMNSLKPEDTAVDYCAAAPVKKSRFRYDYWGQGTQVTVSS,high polyreactivity
12,QVQLVESGGGLVQAGGSLRLSCAASGIIFKYYAMGWSRQAPGKERELVAAISWTGDSTYADSVKGRFTISRDNAKNTVYLQMNSLKPEDTAVYYCAVAFRRVRSLGEGYWGQGTQVTVSS,low polyreactivity
13,QVQLVESGGGLVQAGGSLRLSCAASGIIFLDYVMGWYRQAPGKERELVAAINSGGSTYYADSVKGRFTISRDNAKNTVYLQMNSLKPEDTAVYYCAADDYYKFDYWGQGTQVTVSS,low polyreactivity
14,QVQLVESGGGLVQAGGSLRLSCAASGIIFLNYAMGWYRQAPGKERELDAGITGRGGITYYTDSVKGRFTISRDNAKNTVYLQMNSLKPEDTAVYYCAARRYRFAGDYRMYYWGQGTQVTVSS,high polyreactivity
15,QVQLVESGGGLVQAGGSLRLSCAASGIIFLWYAMGWYRQAPGKERELVAAITSGGSTYYADSVKGRFTISRDNAKNTVYLQMNSLKPEDTAVYYCAAVNGWRRVKRFDYWGQGTQVTVSS,high polyreactivity
16,QVQLVESGGGLVQAGGSLRLSCAASGIIFNPYALGWYRHAPGKERELVATISRGGRTNYADSVKGRFTISRDNAKNTVYLQLHSLKPEDTAVYYCNKTASGRYHYDYWGQGTQVTVSS,low polyreactivity
17,QVQLVESGGGLVQAGGSLRLSCAASGIIFNSNAMGWYRQAPGKERELVAAISVSGGSTYYADSVKGRFTISRDNAKNTVYLQMYSLIPEDTAVYYCNARSLYPWRWKKEYGHWGQGTQVTVSS,high polyreactivity
18,QVQLVESGGGLVQAGGSLRLSCAASGIIFNSYSMGLYRHAPGKERELVAAITYSGTRTYYADSVKGRFTISRDNAKNTVYLQMNCLKPEDTAVYYCNAVTGRGRTITQYDSWGQGTQVTVSS,high polyreactivity
19,QVQLVESGGGLVQAGGSLRLSCAASGIIFNTYAMGWYRQAPGKERELVAAIDSRDASTYADSVKGRFTISRDNAKNTVYLQMNSLKPEDTAVYYCAATHIVDLISEVYYWGQGTQVTVSS,low polyreactivity
20,QVQLVESGGGLVQAGGSLRLSCAASGIIFNTYAMGWYRQAPGKERELVAAIDSRDASTYADSVKGRFTISRDNAKNTVYVQMNSLKPEDTAVYYCNARIESYWLDFDYWGQGTQVTVSS,low polyreactivity
21,QVQLVESGGGLVQAGGSLRLSCAASGIIFPFYAMGWYRQAPGKEREFVAAITSGDDTYYADSVKGRFTISRDNAKNTVYLQMNSLKPEDTAVYYCNKRLYIAGYWPQLYYIMDYWGQGTQVTVSS,low polyreactivity
22,QVQLVESGGGLVQAGGSLRLSCAASGIIFPGYAMGLYRQAPGKERELVAAISRSGASTYYADSVKGRFTISRDNAKNTVYLQMNSLKPEDTEVYYCAAEWYLGGEYRRYDYWGQGTQVTVSS,high polyreactivity

row,Sequence,polyreactivity (PSR sort gate)
1,QVQLVESGGGLVQAGGSLRLSCAASGIIFPNYAMGWYRPAPGKERELVAAIDDDASTTYADSVKGRFTISRDNAKNTVYLQMNSLKPEDTAVYYFAADGFDWYDWRWTYDYWGQGTQVTVSS,high polyreactivity
2,QVQLVESGGGLVQAGGSLRLSCAASGIIFPWSTMGWYRQAPGKERELVAAISSGGRTNYADSVKGRFTISRDNAKNTVYLQMNSLKPEDTAVYYCAAKYYRDRDWGQGTQVTVSS,high polyreactivity
3,QVQLVESGGGLVQAGGSLRLSCAASGIIFPYYAMGWYRQAPGKERELVAAISIDGSTNYAVSVKGRFTISRDNAKNTVYLQMNSLKPEDTAVYYCNTTAFSTYQVGFLYDYWGQGTQVTVSS,low polyreactivity
4,QVQLVESGGGLVQAGGSLRLSCAASGIIFPYYAMGWYRQAPGKESELVAAISQSGGSTYYADSVKGRFTISRDNAKNTVFFQMNSVKPEDTAVYYCDKFIPSYHDGDYWGQGTQVTVSS,low polyreactivity
5,QVQLVESGGGLVQAGGSLRLSCAASGIIFPYYTMGGYRQAPGKERELVARITNGGRTYSADSVKGRFTISRDKAKNTVYLQMNSLKPEDTAVYYCAASWGRRKPRMDYWGQGTQVTVSS,high polyreactivity
6,QVQLVESGGGLVQAGGSLRLSCAASGIIFQIYAKGWYRQAPGKERELVAAISGGGNTDYADSVKGRFTISRDNAKNTVYLQMNSLKPEDTAVYYCAADFVDWVWSRYGLFEHDYWGQGTQVTVSS,low polyreactivity
7,QVQLVESGGGLVQAGGSLRLSCAASGIIFQQYAMGWYRQAPGKERELVAAITYSGDGTYYADSVKGRFTISRDNANNTVYLQMNSLKPEDTAVYYCAAYPRDPYKEYDYWGQGTQVTVSS,low polyreactivity
8,QVQLVESGGGLVQAGGSLRLSCAASGIIFQRNDMGWYRQAPGKERELVANIRDGGITYADSVKGRFTISRDNAKNTVYLQMNSLKPEDTAVYYCARDDTSPGYCDQSSNAAYYYWGQGTQVTVSS,low polyreactivity
9,QVQLVESGGGLVQAGGSLRLSCAASGIIFQSYTMGWYRQAPGKERELVAAIDSGGSTYYADSVKGRFTISRDNAKNTVYVQMNSLKPEDSAVYYCATDYPLYWSTLYDYDYWGQGTQVTVSS,low polyreactivity
10,QVQLVESGGGLVQAGGSLRLSCAASGIIFRAYAMGWYRPAPGKERELVAAISWSGGSTYYADSVKGRFTISRDNAKNTVYLQMNSLKPEDTAVYYCAAESLVYDFDYWGQGTQVTVSS,high polyreactivity
11,QVQLVESGGGLVQAGGSLRLSCAASGIIFRDNAMGWYRQAPGTERELVAAIDSSGGTTYADSVKGRFTISRDNAKNTVYLQMNSLKPEDTAVYYCATEVYSTVSYYGYDYYGRNYYYWGQGPQVTVSS,low polyreactivity
12,QVQLVESGGGLVQAGGSLRLSCAASGIIFRDYGMGWYRQAPGKESEIVATITYSGGGTYYADSVKGRFTISRDNANNTVYLQMNSLKPEDTAVYYCAAYPFYYDLAYDYWGQGTQVTVSS,low polyreactivity
13,QVQLVESGGGLVQAGGSLRLSCAASGIIFRGNAMGWYRQAHGKERELVAAISSAGSTNYADSVKGRFTISRDNAKNTVYLQMNSLKPEVTAVFYCAKGSIKYHVTLRGRGYYWGQGTQVTVSS,low polyreactivity
14,QVQLVESGGGLVQAGGSLRLSCAASGIIFRGYAMGWYRQAPGKERELVASITRRGGSTRYADSVKGRFTISRDNAKNTVYLQMNSLKPEDTAVYYCAAVRVHTDRYNYWGQGTQVTVSS,high polyreactivity
15,QVQLVESGGGLVQAGGSLRLSCAASGIIFRLNTMGWYRQAPGKEREFVAAITSGGSTHYADSVKGRFTISRDNAKNTVYLQMNSLKPEDTAVYYCAAGHRANYWAWHFYYPGDYWGQGTQVTVSS,low polyreactivity
16,QVQLVESGGGLVQAGGSLRLSCAASGIIFRRYAMGWYRQAPGKERELVAAISSRGGSTYYADSVKRRFTISRDNAKNTVYLQMNSLKPEDTAVYYCAKGFSGTGGSGDFGYWGQGTQVTVSS,high polyreactivity
17,QVQLVESGGGLVQAGGSLRLSCAASGIIFRRYAMGWYRQAPGKERELVAVITSGGSTNYADSVKGRFTISRDNAKNTVYLQMNSLKPEDTAVYYCAAKGWVYWIRSRYDYWGQGTQVTVSS,high polyreactivity
18,QVQLVESGGGLVQAGGSLRLSCAASGIIFRSYAMGWYRQAPGKERELVAAITRSGGSTYADSVKGRFTISRDNAKNTVYLQMTSLKPEDTAVYYCAADRYSGWVYRRDYWGQGTQVTVSS,low polyreactivity
19,QVQLVESGGGLVQAGGSLRLSCAASGIIFRVYAMGWYRQAPGKERELVATITWSGGSTFYADSVKGRFTISRDNAKNPVDLQRNSLTPEDTAVYYCAARGYLRREQLYVLIRYDYWGQGTQVTVSS,low polyreactivity
20,QVQLVESGGGLVQAGGSLRLSCAASGIIFRWYAMGWYRQAPGKERELVAGITSTTGTTYYADSVKGRFTISRDNAKNTVYLQMNSLKPEDSAVYYCAADYYWYTTAGVVDSFEYWGQGTQVTVSS,low polyreactivity
21,QVQLVESGGGLVQAGGSLRLSCAASGIIFRWYGMGWYRQAPGKERELVATITSGGRTNYADSVKGRFTISRDNAKNTVYLQMNSLKPEDTAVYYCAAEKWTVRRFNPYTYYRYDYWGQGTQVTVSS,low polyreactivity
